Columns and labels:
[1] = test system: T1, AV199-237
T1 sequence: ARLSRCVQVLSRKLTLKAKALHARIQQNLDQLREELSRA

[2] = test system: apoC-III content of VLDL
[3] = test system: T2, AV199-232
T2 sequence: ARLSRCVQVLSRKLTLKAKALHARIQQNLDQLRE

## lipoprotein lipase (LpL), SIGMA
[1]
  LpL hydrolytic activity (EnzChek fluorogenic TG substrate), peptide pre-incubated with VLDL: hydrolytic activity was increased ˜4-fold
[2]
  affinity of LpL for substrate on addition of VLDL (10 µg/ml): The addition of VLDL reduced the enzymes affinity for substrate by 5.3-fold
[3]
  Km of LpL for substrate, with VLDL, 2.5 µM peptide: substantially improved the Km by almost 8-fold
  apparent affinity of LpL for substrate (Michaelis-Menten fit), AV199-232 (2.5 µM) + VLDL (10 µg/ml): AV199-232+VLDL increases LpL's apparent affinity for substrate by 7.8-fold
